Reference: patent US20030203464

B1: Type I Rac-GEF (protein)
chain: MEYMPMEIRHDLEILQPEEIKLQEAMFELVTSEASYYKSLNLLVSHFMENERIRKILHPSEAHILFSNVLDVLAVSERFLLELEHRMEENIVISDVCDIVYRYAADHFSVYITYVSNQTYQERTYKQLLQEKAAFRELIAQLELDPKCRGLPFSSFLILPFQRITRLKLLVQNILKRVEERSERECTALDAHKELEMVVKACNEGVRKMSRTEQMISIQKKMEFKIKSVPIISHSRWLLKQGELQQMSGPKTSRTLRTKKLFHEIYLFLFNDLLVICRQIPGDKYQVFDSAPRGLLRVEELEDQGQTLANVFILRLLENADDREATYMLKASSQSEMKRWMTSLAPNRRTKFVSFTSRLLDCPQVQCVHPYVAQQPDELTLELADILNILDKTDDGWIFGERLHDQERGWFPSSMTEEILNPKIRSQNLKECFRVHKMDDPQRSQNKDRRKLGSRNRQ
Rac1, P63000
  exchange activity on Rac1, RhoA and Cdc42: Rac GEF is primarily selective for Rac1
RhoA, P61586
RhoA, P61586, sequence (P61586 whole entry): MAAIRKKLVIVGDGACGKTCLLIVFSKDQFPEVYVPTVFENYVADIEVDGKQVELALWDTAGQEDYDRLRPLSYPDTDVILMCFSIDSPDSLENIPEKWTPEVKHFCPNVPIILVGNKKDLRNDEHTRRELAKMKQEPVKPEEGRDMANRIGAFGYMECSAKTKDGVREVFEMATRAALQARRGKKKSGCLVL
  exchange activity on Rac1, RhoA and Cdc42: but also displays activity against both RhoA and Cdc42
Cdc42, P60953
Cdc42, P60953, sequence (P60953 whole entry, looked up): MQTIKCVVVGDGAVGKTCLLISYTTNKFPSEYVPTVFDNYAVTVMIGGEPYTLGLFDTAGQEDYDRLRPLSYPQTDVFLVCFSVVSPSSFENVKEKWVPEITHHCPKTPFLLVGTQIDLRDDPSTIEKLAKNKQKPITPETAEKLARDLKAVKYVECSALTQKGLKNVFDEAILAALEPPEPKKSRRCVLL
  exchange activity on Rac1, RhoA and Cdc42: but also displays activity against both RhoA and Cdc42

B2: Type II Rac-GEF (protein)
chain: B1 chain
Rac1, P63000
  exchange activity on Rac1, RhoA and Cdc42: Rac GEF is primarily selective for Rac1
RhoA, P61586
  exchange activity on Rac1, RhoA and Cdc42: but also displays activity against both RhoA and Cdc42
Cdc42, P60953
  exchange activity on Rac1, RhoA and Cdc42: but also displays activity against both RhoA and Cdc42
